We go through 167 variants from the RNAGym collection of RNA variant scans (doi:10.7554/elife.80360).

B1: HDV Ribozyme (parent)
chain: GGCCGGCAUGGUCCCAGCCUCCUCGCUGGCGCCGGCUGGGCAACAUUCCGAGGGGACCGUCCCCUCGGUAAUGGCGAAUGGGACCCA

The series covers variants of B1. Description: self-cleavage, relative activity (ratio to wild type); higher = more cleavage; co-transcriptional.
For the variant U23A C58U, the self-cleavage was 1.25.
Regarding U23A C58G, the self-cleavage was found to be 1.34.
With U23A C85A the figure was 0.68; with U23A C85G, 0.942; with U23C C26U, 1.26.
Turning to U23C C26A, the self-cleavage was determined as 1.11.
Regarding U23A A42G, the self-cleavage amounted to 0.499.
Take U23C G81U: the self-cleavage amounted to 0.499.
With C22U G74A the figure was 0.113.
In the case of U23C G53C, the self-cleavage was 0.927.
As for U23A U27A, the figure is 0.675; as for C22U U47C, 0.424; as for C22U U47A, 0.584.
As for U23C A56C, the figure is 0.942; as for U23C A56G, 0.87; as for U23G C41A, 0.465.
As for U23G C85A, the self-cleavage is 0.787.
Take U23C U65A: the self-cleavage stood at 1.09.
Regarding U23C U65G, the self-cleavage came out at 0.95.
For the variant U23C U65C, the self-cleavage was 1.02.
Regarding U23A A77G, the self-cleavage turned out to be 1.03.
For C22U U69C, the self-cleavage is 0.914.
In the case of C22U U69A, the self-cleavage was 0.554.
For the variant C22U U69G, the self-cleavage came out at 0.759.
As for U23A U79C, the self-cleavage was 0.369.
With U23A U79A the figure was 0.646.
Regarding U23G A83G, the self-cleavage came to 0.237.
With U23A G73A, the self-cleavage came to 0.575.
For U23A G73C, the self-cleavage is 0.554.
As for U23G C66U, the self-cleavage was found to be 0.65.
On to U23G C49U, for which the self-cleavage was 0.867.
With U23G C49A, the self-cleavage was 0.831.
Turning to U23A G29C, the self-cleavage turned out to be 0.0923.
With U23A G29U the figure was 0.
Take U23A G29A: the self-cleavage stood at 0.0804.
As for C22U G54C, the figure is 0.641.
Regarding C22U G54A, the self-cleavage came out at 0.709.
Consider U23C G38C, for which the self-cleavage amounted to 0.277.
As for U23C G38A, the figure is 0.17; as for U23A A71U, 0.831; as for U23A A71G, 0.8.
Consider U23A G74A, for which the self-cleavage stood at 0.465.
For U23A A45U, the self-cleavage is 0.727.
As for U23A A45G, the figure is 1.15.
With U23A U47C, the self-cleavage worked out at 1.14.
For U23A A78U, the self-cleavage came out at 0.256.
Turning to C22U G31U, the self-cleavage was 0.0817.
With C22U G31C the figure was 0; with U23A G38C, 0.192.
U23A G38U: the self-cleavage came to 0.208.
Turning to U23A G38A, the self-cleavage worked out at 0.0963.
Turning to U23G A43G, the self-cleavage is 0.138.
For U23G A43C, the self-cleavage was found to be 0.131.
Regarding U23C C41A, the self-cleavage amounted to 0.789.
As to U23C C41U, the self-cleavage came to 0.959.
As for U23C C36A, the self-cleavage came out at 0.172.
U23C C36G: the self-cleavage amounted to 0.125.
As for U23G A42U, the self-cleavage amounted to 0.0997.
Consider U23G A42G, for which the self-cleavage was determined as 0.0665.
For the variant U23A G40C, the self-cleavage came out at 0.181.
With U23C C75A the figure was 0.166; with U23C C75U, 0.0739.
With U23A U69C, the self-cleavage worked out at 0.942.
As for U23A U69A, the figure is 1.01; as for U23G C84G, 0.388.
With U23G C84U the figure was 0.342.
Take U23A C63G: the self-cleavage amounted to 0.877.
Turning to U23A C63A, the self-cleavage amounted to 0.812.
U23G A77U: the self-cleavage was determined as 0.237.
Consider U23G A77C, for which the self-cleavage came to 0.172.
As for U23C G39C, the figure is 0.244; as for U23C G39U, 0.716.
Consider C22U C48A, for which the self-cleavage is 0.815.
As for U23C G67U, the self-cleavage is 0.743.
As for U23C G31C, the figure is 0.141; as for U23C C61U, 0.975.
In the case of U23C C61G, the self-cleavage was determined as 0.945.
As for C22U G25C, the self-cleavage is 0.0852.
In the case of U23G C30U, the self-cleavage was determined as 0.203.
As for U23G C30A, the figure is 0.145; as for U23G C30G, 0.0536; as for U23A G67A, 0.782.
Regarding U23A G67U, the self-cleavage came out at 0.849.
As for U23A G67C, the figure is 1.22.
Regarding U23C C48G, the self-cleavage turned out to be 1.05.
As for U23C C48U, the figure is 0.806; as for U23C C48A, 1.12; as for U23A C62A, 0.872.
Regarding U23G C44A, the self-cleavage came out at 0.0791.
Turning to U23A C49G, the self-cleavage worked out at 1.16.
With U23A C49A, the self-cleavage amounted to 0.538.
For the variant U23A C26G, the self-cleavage worked out at 0.978.
Regarding U23A C41U, the self-cleavage was determined as 1.14.
As for C22U G50U, the figure is 0.521; as for U23G G34C, 0.0415.
Take U23A U72A: the self-cleavage was determined as 0.773.
As for U23A U72C, the figure is 0.332.
As for U23A G76A, the self-cleavage was 0.978.
With U23A C33G the figure was 0.35; with U23G G40A, 0.76.
U23G G40C: the self-cleavage was determined as 0.135.
For the variant C22U U37A, the self-cleavage worked out at 0.166.
As for C22U U37G, the figure is 0.101; as for U23C G55C, 0.914.
As for U23C G55U, the figure is 1.08; as for U23A A70G, 0.931; as for C22U C41A, 0.674.
As for C22U C41U, the figure is 0.656; as for C22U C41G, 0.554; as for U23C C44U, 0.554.
C22U G52C: the self-cleavage turned out to be 0.635.
Turning to U23A C61U, the self-cleavage was 1.25.
On to U23C G40C, for which the self-cleavage was 0.0852.
Consider U23C G40A, for which the self-cleavage turned out to be 0.8.
As to U23C U79C, the self-cleavage was 0.232.
In the case of U23C U79A, the self-cleavage was 0.554.
For the variant U23A G39A, the self-cleavage was 0.408.
Turning to U23G G50A, the self-cleavage was 0.614.
Take U23G G50C: the self-cleavage was determined as 0.767.
With C22U C44U the figure was 0.249.
As to U23G A71G, the self-cleavage was 0.831.
Regarding U23G A71C, the self-cleavage stood at 0.256.
In the case of U23G A71U, the self-cleavage came out at 0.633.
C22U C66A: the self-cleavage is 0.758.
On to U23C A51C, for which the self-cleavage amounted to 1.08.
As for U23G G31A, the figure is 0.175; as for U23G G31U, 0.0639; as for U23C U37G, 0.266.
Consider U23G A45U, for which the self-cleavage was 0.312.
Regarding C22U G59A, the self-cleavage came to 0.675.
Consider C22U G59U, for which the self-cleavage stood at 0.858.
With U23A G25C the figure was 0.208.
In the case of U23C G59U, the self-cleavage was 0.975.
In the case of U23C G59C, the self-cleavage is 1.26.
On to U23G G55U, for which the self-cleavage worked out at 0.502.
Take U23G G55A: the self-cleavage worked out at 0.67.
Take C22U G68C: the self-cleavage amounted to 0.345.
As for C22U G68U, the self-cleavage was 0.572.
As for U23C A70C, the figure is 0.939.
As for U23C A70G, the figure is 0.95.
Consider C22U C33A, for which the self-cleavage turned out to be 0.0692.
For the variant U23A C30A, the self-cleavage stood at 0.466.
Regarding U23A C30U, the self-cleavage was found to be 0.554.
With U23C C62G the figure was 0.987; with U23C C62U, 1.03; with U23G C62U, 0.403.
For the variant U23G C62A, the self-cleavage stood at 0.712.
In the case of U23G A56G, the self-cleavage worked out at 0.787.
Consider U23G A56C, for which the self-cleavage was 0.978.
Consider C22U C64U, for which the self-cleavage was found to be 0.892.
With U23A G53C, the self-cleavage was 1.12.
On to U23A G53U, for which the self-cleavage was determined as 0.923.
With U23A G53A the figure was 0.95; with C22U C84U, 0.29.
Consider C22U U46C, for which the self-cleavage worked out at 0.268.
For C22U U46A, the self-cleavage came to 0.295.
Consider U23A C32A, for which the self-cleavage was determined as 0.251.
In the case of C22U C57U, the self-cleavage amounted to 0.817.
Take U23G A87G: the self-cleavage was 0.645.
As for U23G G25A, the self-cleavage turned out to be 0.142.
On to U23A C24G, for which the self-cleavage came to 0.113.
Regarding U23C U69C, the self-cleavage stood at 0.886.
Consider U23A A43U, for which the self-cleavage was 0.481.
With U23A A43C, the self-cleavage was 0.312.
U23C C63A: the self-cleavage came to 0.86.
On to U23C C63U, for which the self-cleavage is 0.984.
For U23G G29C, the self-cleavage is 0.196.
